Results on five molecules are retold here after article PMC7552397, “Crystal structure of caspase-11 CARD provides insights into caspase-11 activation” (Cell Discovery, 2020).

Data set [1] deals with the molecule itself. As to the kind of experiment: SEC-MALS; DAWN HELEOS 8+, room temperature, samples at 1 mg/mL in 250 mM NaCl, 10 mM Tris-HCl pH 8.0; ASTRA analysis.
Data set [2] deals with the molecule itself. The data set is described as follows: AUC; sedimentation velocity, 50,000 r.p.m., 20.0 °C, 250 mM NaCl, 10 mM Tris-HCl pH 8.0; 0.187 and 1.53 mg/mL; c(s) distributions; monomer to homodimer and homotetramer.
Data set [3] concerns the molecule itself. The data set is described as follows: SEC; gel filtration on Superdex 200, 250 mM NaCl, 10 mM Tris-HCl pH 8.0; MBP-tagged proteins, 1 mg each where told.
The target in data set [4] is T1, caspase-11 p20 subunit of the catalytic domain (murine, UniProt P70343 60-266).
T1 construct: caspase-11, murine, p20 subunit, residues 60–266; source: E. coli, by auto-processing of MBP-tagged full-length wild-type caspase-11, purified
T1 sequence (looked up): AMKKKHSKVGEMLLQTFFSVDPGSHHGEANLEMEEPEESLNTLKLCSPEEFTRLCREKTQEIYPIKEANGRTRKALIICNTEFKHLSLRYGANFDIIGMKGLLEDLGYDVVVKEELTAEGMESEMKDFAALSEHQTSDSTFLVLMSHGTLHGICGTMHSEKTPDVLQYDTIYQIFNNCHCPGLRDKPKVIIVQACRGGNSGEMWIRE
As to the kind of experiment: SEC; analytical gel-filtration column of auto-processed wild-type caspase-11 from E. coli; the fraction then on an SDS gel, bands identified by N-terminal sequencing and mass spectrum. As to conditions: both partners purified.

B1: MBP-tagged caspase-11 CARD, residues 1–101 (WT-CARD^aa1–101) (domain or fragment, murine, UniProt P70343 1-101, looked up)
chain: MAENKHPDKPLKVLEQLGKEVLTEYLEKLVQSNVLKLKEEDKQKFNNAERSDKRWVFVDAMKKKHSKVGEMLLQTFFSVDPGSHHGEANLEMEEPEESLNT
notes: source: E. coli Rosetta and BL21 (DE3), purified (nickel column, Superdex 200 gel filtration); not shown: MBP, N-terminal, kept; His6, C-terminal, kept
Take B1: the stoichiometry N (as a rule, a count of units in the complex or per binding partner) came out at 4 in data set [1] and 2 in data set [2].

B2: MBP-tagged caspase-11 CARD, residues 1–101, V13A L14A L17A V21A (VLLV-CARD^aa1–101) (domain or fragment, murine, UniProt P70343 1-101, looked up)
chain: MAENKHPDKPLKAAEQAGKEALTEYLEKLVQSNVLKLKEEDKQKFNNAERSDKRWVFVDAMKKKHSKVGEMLLQTFFSVDPGSHHGEANLEMEEPEESLNT
notes: source: E. coli, purified (nickel column, gel filtration); not shown: MBP, N-terminal, kept; His6, C-terminal, kept
For the molecule B2, the binding result in data set [3] was “binds”.

B3: MBP-tagged WT-CARD^aa1–101 with the first ten amino acids replaced by a GS repeat sequence (GS repeat mutant) (domain or fragment, murine)
chain: GSGSGSGSGSLKVLEQLGKEVLTEYLEKLVQSNVLKLKEEDKQKFNNAERSDKRWVFVDAMKKKHSKVGEMLLQTFFSVDPGSHHGEANLEMEEPEESLNT
notes: flexible GS repeat that replaces the first ten amino acids of caspase-11; source: E. coli, purified (nickel column, gel filtration); not shown: MBP, N-terminal, kept; His6, C-terminal, kept
As for B3, the binding result in data set [3] is “binds”.

B4: MBP-caspase-11 protein carrying only the C254A mutation (C254A-caspase-11) (enzyme, murine, UniProt P70343 1-373, looked up)
chain: MAENKHPDKPLKVLEQLGKEVLTEYLEKLVQSNVLKLKEEDKQKFNNAERSDKRWVFVDAMKKKHSKVGEMLLQTFFSVDPGSHHGEANLEMEEPEESLNTLKLCSPEEFTRLCREKTQEIYPIKEANGRTRKALIICNTEFKHLSLRYGANFDIIGMKGLLEDLGYDVVVKEELTAEGMESEMKDFAALSEHQTSDSTFLVLMSHGTLHGICGTMHSEKTPDVLQYDTIYQIFNNCHCPGLRDKPKVIIVQAARGGNSGEMWIRESSKPQLCRGVDLPRNMEADAVKLSHVEKDFIAFYSTTPHHLSYRDKTGGSYFITRLISCFRKHACSCHLFDIFLKVQQSFEKASIHSQMPTIDRATLTRYFYLFPGN
notes: caspase-11, murine, full-length protein with C254A; also called MBP-caspase-11 C254A; source: E. coli, purified (gel filtration); not shown: MBP, N-terminal, kept; His6, C-terminal, kept
On to B4, for which the binding result in data set [3] is “binds”.

B5: caspase-11 p10 subunit of the catalytic domain (domain or fragment, murine, UniProt P70343 286-373, looked up)
chain: AVKLSHVEKDFIAFYSTTPHHLSYRDKTGGSYFITRLISCFRKHACSCHLFDIFLKVQQSFEKASIHSQMPTIDRATLTRYFYLFPGN
notes: caspase-11, murine, p10 subunit, residues 286–373; source: E. coli, by auto-processing of MBP-tagged full-length wild-type caspase-11, purified
On to B5, for which, in data set [4], the binding result is listed as “binds”.
